Measured values as given in PMC12560131.

Assays:
[1] = molecular target: Adalimumab; experiment: SPR
[2] = molecular target: Adalimumab–pM440 complex (Mycoplasma genitalium) (UniProt P47523); experiment: SPR; single-cycle kinetic titration of TNFα on Adalimumab or on the Adalimumab-pM440 complex
[3] = molecular target: Adalimumab–pM440 complex (Mycoplasma genitalium) (UniProt P47523); experiment: SPR

protein M440 (from UniProt P47523 1-440) (domain or fragment)
Kd [1]: < 0.15 nM

TNFα (from UniProt P01375 1-233) (ligand)
Kd [2]: 2.94 nM | fold decrease in affinity against Adalimumab without pM440 [3]: 3 fold | koff [3]: 0.00046 s⁻¹ | kon [3]: 160000 M⁻¹ s⁻¹
